# Values of other authors as cited in publication PMC2853182.
# Molecular target: Protective antigen (PA) (Bacillus anthracis) (UniProt P13423)
substance,measurement,value
CMG2 soluble domain (from UniProt P58335),Kd,2 nM
